From patent US20250230210A1 (PARTNER THERAPEUTICS, published 2025)

Columns and labels:
[1] = molecular target: T1, human serum albumin (human, UniProt P02768 25-609); test: BLI, Octet 384, VHH-Fc on AHC sensor, albumin in solution
T1 construct: also called HSA; Human Albumin
Protocol: (§1) To assess binding, the VHH were cloned onto a human IgG1 Fc and hinge for ease of purification and analysis. […] The VHH-Fc constructs were loaded onto AHC sensors prior to exposure to the monomeric targets, human, mouse or rhesus albumin in solution to determine association and dissociation. In the case of the pH assessment, the binding reaction and dissociation buffer were at the described pH. Data acquisition was performed at 30° C.
(§2) To assess binding to albumin, the VHH were cloned onto a human IgG1 Fc and hinge for ease of purification and analysis. […] The VH-Fc constructs were loaded onto AHC sensors prior to exposure to the monomeric targets human, mouse or rhesus albumin in solution for association and then dissociation in buffer solution (Table 5 and FIGS. 5A-C).

[2] = molecular target: T2, Mouse Albumin (mouse, UniProt P07724 25-608); test: as above
T2 construct: also called murine albumin
Protocol: as §1, §2

[3] = molecular target: T3, Rhesus albumin (rhesus monkey, UniProt Q28522 17-600); test: as above
T3 construct: also called rhesus monkey albumin
Protocol: as §1, §2

[4] = molecular target: T1, human serum albumin; test: BLI, VHH-Fc on sensor, human albumin in solution, pH 5.5, 30 C, 1:1 model
Protocol: as §2
(§3) To determine the dissociation constant, the binding reaction and dissociation were performed at the described pH. Data acquisition was performed at 30° C.
(§4) Data (time and response units) was analyzed using the ForteBio Data Analysis Software. The data was fit to a 1:1 binding model to calculate an association (Kon) and dissociation rate (Koff), and KD was calculated using the ratio kd/ka.

[5] = molecular target: T1, human serum albumin; test: BLI, VHH-Fc on sensor, human albumin in solution, pH 6.0, 30 C, 1:1 model
Protocol: as §2, §3, §4

[6] = molecular target: T1, human serum albumin; test: BLI, VHH-Fc on sensor, human albumin in solution, pH 6.5, 30 C, 1:1 model
Protocol: as §2, §3, §4

[7] = molecular target: T1, human serum albumin; test: BLI, VHH-Fc on sensor, human albumin in solution, pH 7.0, 30 C, 1:1 model
Protocol: as §2, §3, §4

[8] = molecular target: T1, human serum albumin; test: BLI, Octet 384, VHH-Fc on AHC sensor, albumin in solution; VHH-Fc on AHC sensor, monomeric human albumin in solution; pH of Table 5 not stated

Response [1]: 0.178
Kd [2]: 10.4 nM
Response [2]: 0.507
Kd [3]: 66.2 nM
Response [3]: 0.34
Kd [4]: 12.3 nM
Kd [5]: 3.81 nM
Kd [6]: 8.2 nM
Kd [7]: 6.63 nM
Kd [8]: 159 nM
B1: VHH-Fc construct (anti-albumin VHH cloned onto a human IgG1 Fc and hinge) (Fc fusion)
chain: EVQLLESGGGLVQPGGSLRLSCAASGETLDYYAIGWFRQAPGKEREGVSCIASSGGSTNYADSVKGRFTISRDNSKNTVYLQMNSLKPEDTAVYYCAAAVLECRTVVRGYDYWGQGTQVTVSS
notes: also called VH-Fc constructs; not shown: human IgG1 hinge and Fc
